Experimental findings from article PMC5807433, “PP5 (PPP5C) is a phosphatase of Dvl2” (Scientific Reports, 2018) are described below.

In this test the target is T1, FLAG-Dvl2 (full-length human Dishevelled 2) (human, UniProt O14641 1-736).
T1 construct: Dishevelled 2 (Dvl2), human, full length; also called FLAG-tagged Dvl2; full-length Dvl2; source: HEK293T, transfected (pCS2+), in lysate; also purified from transfected HEK293T with FLAG M2 beads and eluted with FLAG peptide; not shown: FLAG, N-terminal, kept
T1 sequence (looked up): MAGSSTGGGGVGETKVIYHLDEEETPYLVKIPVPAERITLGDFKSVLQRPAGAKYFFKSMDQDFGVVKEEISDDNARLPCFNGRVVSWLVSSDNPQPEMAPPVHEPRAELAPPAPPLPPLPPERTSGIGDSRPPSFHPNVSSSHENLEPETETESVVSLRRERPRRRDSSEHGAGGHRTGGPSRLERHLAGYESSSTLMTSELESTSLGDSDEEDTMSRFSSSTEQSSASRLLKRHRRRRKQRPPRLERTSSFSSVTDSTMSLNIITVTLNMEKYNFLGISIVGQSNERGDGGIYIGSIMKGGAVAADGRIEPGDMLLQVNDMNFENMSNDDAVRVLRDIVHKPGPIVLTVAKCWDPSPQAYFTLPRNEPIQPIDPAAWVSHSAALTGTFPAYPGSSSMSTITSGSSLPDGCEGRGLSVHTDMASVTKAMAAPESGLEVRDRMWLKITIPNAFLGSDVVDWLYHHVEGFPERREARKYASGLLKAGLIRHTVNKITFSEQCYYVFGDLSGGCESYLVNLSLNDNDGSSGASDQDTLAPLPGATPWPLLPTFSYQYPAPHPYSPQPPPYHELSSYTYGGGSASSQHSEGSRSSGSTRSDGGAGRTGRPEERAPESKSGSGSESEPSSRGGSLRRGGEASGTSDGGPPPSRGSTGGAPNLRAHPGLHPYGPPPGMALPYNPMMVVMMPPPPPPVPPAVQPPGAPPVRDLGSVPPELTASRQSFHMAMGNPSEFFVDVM
The test can be described thus: pull-down; GST pull-down: FLAG-Dvl2 purified from transfected HEK293T incubated with PP5 protein purified from E. coli and Glutathione Sepharose 4B beads; GST as negative control. Conditions: both partners purified.

B1: GST-PP5 (wild type) (enzyme, human, UniProt P53041 1-499, looked up)
chain: MAMAEGERTECAEPPRDEPPADGALKRAEELKTQANDYFKAKDYENAIKFYSQAIELNPSNAIYYGNRSLAYLRTECYGYALGDATRAIELDKKYIKGYYRRAASNMALGKFRAALRDYETVVKVKPHDKDAKMKYQECNKIVKQKAFERAIAGDEHKRSVVDSLDIESMTIEDEYSGPKLEDGKVTISFMKELMQWYKDQKKLHRKCAYQILVQVKEVLSKLSTLVETTLKETEKITVCGDTHGQFYDLLNIFELNGLPSETNPYIFNGDFVDRGSFSVEVILTLFGFKLLYPDHFHLLRGNHETDNMNQIYGFEGEVKAKYTAQMYELFSEVFEWLPLAQCINGKVLIMHGGLFSEDGVTLDDIRKIERNRQPPDSGPMCDLLWSDPQPQNGRSISKRGVSCQFGPDVTKAFLEENNLDYIIRSHEVKAEGYEVAHGGRCVTVFSAPNYCDQMGNKASYIHLQGSDLRPQFHQFTAVPHPNVKPMAYANTLLQLGMM
notes: Protein phosphatase 5 (PP5, PPP5C), wild type; Probably full length; also called PP5 protein purified from E. coli; bacterially expressed and purified PP5; source: E. coli BL21 (pPGH vector, IPTG), purified with Glutathione Sepharose 4B beads; not shown: GST, N-terminal, kept
On to B1, for which the binding result was “binds”.
